Laboratory results: paper PMC12705809

Molecular target: Chaetomium thermophilum Pmt4 (protein O-mannosyltransferase 4), wild-type full-length (Chaetomium thermophilum)
Assay: native MS; ctPmt4 purified in DDM, exchanged into 200 mM ammonium acetate pH 8.0 with 2x CMC detergent; Q Exactive UHMR, negative polarity; monomer and dimer peaks seen

- stoichiometry N: 2
Substance: Chaetomium thermophilum Pmt4 (protein O-mannosyltransferase 4), wild-type full-length (enzyme)
